Test results reported in publication PMC2722044.

Tests used:
[1] = biological target: VLRB.2D, lamprey variable lymphocyte receptor B specific for hen egg white lysozyme (lamprey); assay: ITC
[2] = biological target: VLRB.2DMut13, in vitro affinity-matured variant of VLRB.2D (lamprey); assay: ITC

In the case of “hen egg white lysozyme (from UniProt P00698 19-147) (enzyme)”, the Kd [1] is reported as 430 nM and the Kd [2] is reported as 34 nM.
